No end group written: not given here. (C16)2‑Glu‑C2 = not defined here
Tests used:
[1] = target: T1, integrin α5β1 on patient-derived glioblastoma stem-like cells (GBM-CCC-001, GBM-CCC-002, GBM-CCC-003) (human (patient-derived cells), UniProt P08648 42-1049; P05556 21-798); test: flow cytometry of calcein-loaded liposomes (150 µM lipid) on GBM-CCC-001, GBM-CCC-002 and GBM-CCC-003 cells, 48 hours at 37° C.
T1 construct: whole, on cells; Endogenous heterodimer on cells; The cells were not engineered, so other surface proteins were also present; also called α5β1 integrin; integrin α5β1 polypeptide
Procedure: (§1) GSC neurospheres (GBM-CCC-001, GBM-CCC-002 and GBM-CCC-003) were collected into 15 mL Falcon tubes, pelleted down, and dissociated into single cells. About 200,000 cells were transferred into Eppendorf tubes in neurosphere culture media and treated with 2 mM calcein loaded PR_b liposomes or non-targeted liposomes at a lipid concentration of 150 μM for 48 hours at 37° C. on a shaker. After the incubation period, cells were pelleted down and washed twice with PBS. Flow cytometric analysis was carried out immediately using BD FACSCanto. Non-treated cells that received only media served as a control. Cell autofluorescence was subtracted from all measurements. For the blocking experiment, the same procedure was followed, except cells were preincubated with 1 mg/mL free PR_b peptide in media for 1 hour at 37° C. prior to addition of the PR_b liposomes and incubation for an additional 1 hour at 37° C.

[2] = target: T1, integrin α5β1 on patient-derived …; test: flow cytometry blocking experiment on GBM-CCC-001 cells; 1 mg/mL free PR_b peptide for 1 hour, then PR_b liposomes for 1 hour at 37° C.
Procedure: as §1

T1 sequence (P08648 42-1049, chain 1 of 2): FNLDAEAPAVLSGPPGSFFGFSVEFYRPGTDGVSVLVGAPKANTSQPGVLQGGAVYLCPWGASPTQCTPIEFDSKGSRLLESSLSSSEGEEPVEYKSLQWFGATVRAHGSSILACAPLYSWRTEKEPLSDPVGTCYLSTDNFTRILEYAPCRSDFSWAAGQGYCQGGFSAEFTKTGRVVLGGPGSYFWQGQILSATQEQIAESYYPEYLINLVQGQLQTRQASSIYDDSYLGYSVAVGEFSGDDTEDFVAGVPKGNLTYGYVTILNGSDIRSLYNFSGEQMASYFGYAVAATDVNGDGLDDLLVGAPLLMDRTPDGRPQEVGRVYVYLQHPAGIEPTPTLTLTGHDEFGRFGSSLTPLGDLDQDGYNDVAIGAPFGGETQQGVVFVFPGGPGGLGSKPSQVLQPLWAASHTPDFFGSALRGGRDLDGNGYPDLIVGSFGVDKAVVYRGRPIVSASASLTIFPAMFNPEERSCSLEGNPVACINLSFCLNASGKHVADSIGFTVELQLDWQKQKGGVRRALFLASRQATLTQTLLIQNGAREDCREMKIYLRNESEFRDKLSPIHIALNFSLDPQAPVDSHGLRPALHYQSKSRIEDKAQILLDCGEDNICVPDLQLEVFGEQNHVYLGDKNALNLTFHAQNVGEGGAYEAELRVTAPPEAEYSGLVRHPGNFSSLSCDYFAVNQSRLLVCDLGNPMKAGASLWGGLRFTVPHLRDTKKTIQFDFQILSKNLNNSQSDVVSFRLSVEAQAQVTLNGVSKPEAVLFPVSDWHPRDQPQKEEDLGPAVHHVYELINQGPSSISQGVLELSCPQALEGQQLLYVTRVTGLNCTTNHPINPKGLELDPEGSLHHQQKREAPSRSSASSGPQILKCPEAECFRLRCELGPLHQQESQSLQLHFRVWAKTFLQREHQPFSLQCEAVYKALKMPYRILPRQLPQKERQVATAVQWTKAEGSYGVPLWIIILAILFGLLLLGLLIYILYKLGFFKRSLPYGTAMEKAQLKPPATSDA
T1 sequence (P05556 21-798, chain 2 of 2): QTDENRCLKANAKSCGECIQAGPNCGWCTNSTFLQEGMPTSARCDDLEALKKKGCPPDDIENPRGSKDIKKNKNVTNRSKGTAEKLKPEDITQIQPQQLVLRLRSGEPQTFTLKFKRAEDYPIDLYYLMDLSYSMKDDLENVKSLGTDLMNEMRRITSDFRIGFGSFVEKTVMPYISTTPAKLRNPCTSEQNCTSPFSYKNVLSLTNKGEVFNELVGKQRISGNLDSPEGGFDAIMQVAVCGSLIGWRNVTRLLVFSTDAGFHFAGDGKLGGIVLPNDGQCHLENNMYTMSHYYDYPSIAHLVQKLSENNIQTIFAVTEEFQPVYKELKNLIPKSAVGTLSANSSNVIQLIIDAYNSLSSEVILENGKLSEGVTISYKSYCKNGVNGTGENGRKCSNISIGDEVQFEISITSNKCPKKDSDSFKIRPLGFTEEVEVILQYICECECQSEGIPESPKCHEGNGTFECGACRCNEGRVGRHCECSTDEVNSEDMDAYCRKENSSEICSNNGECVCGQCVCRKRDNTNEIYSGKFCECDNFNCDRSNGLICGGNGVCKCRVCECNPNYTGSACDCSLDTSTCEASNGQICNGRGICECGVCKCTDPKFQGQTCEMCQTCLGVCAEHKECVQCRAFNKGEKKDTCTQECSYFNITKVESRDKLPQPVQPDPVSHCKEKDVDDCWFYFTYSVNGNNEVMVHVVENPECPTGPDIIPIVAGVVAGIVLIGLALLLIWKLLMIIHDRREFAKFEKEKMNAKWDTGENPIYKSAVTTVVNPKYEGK

| Binder | binding result [1] | binding result [2] |
| --- | --- | --- |
| {(C16)2‑Glu‑C2}-KSSPHSRNSGSGSGSGSGRGDSP (reading uncertain; also: printed as (C16)2-Glu-C2-KSSPHSRNSGSGSGSGSGRGDSP, Synthetic fibronectin-mimetic peptide) | binds | – |
| KSSPHSRNSGSGSGSGSGRGDSP [free PR_b peptide] | – | binds |

Reference: patent US20240209361A1 (Johns Hopkins, published 2024)
